Reference: patent US20250041435A1 (AstraZeneca / MedImmune, published 2025)

Key:
[1] = target: T1, human STEAP2 (six-transmembrane epithelial antigen of prostate 2) (human, UniProt Q8NFT2 1-490); assay: cell-based or functional assay
T1 sequence: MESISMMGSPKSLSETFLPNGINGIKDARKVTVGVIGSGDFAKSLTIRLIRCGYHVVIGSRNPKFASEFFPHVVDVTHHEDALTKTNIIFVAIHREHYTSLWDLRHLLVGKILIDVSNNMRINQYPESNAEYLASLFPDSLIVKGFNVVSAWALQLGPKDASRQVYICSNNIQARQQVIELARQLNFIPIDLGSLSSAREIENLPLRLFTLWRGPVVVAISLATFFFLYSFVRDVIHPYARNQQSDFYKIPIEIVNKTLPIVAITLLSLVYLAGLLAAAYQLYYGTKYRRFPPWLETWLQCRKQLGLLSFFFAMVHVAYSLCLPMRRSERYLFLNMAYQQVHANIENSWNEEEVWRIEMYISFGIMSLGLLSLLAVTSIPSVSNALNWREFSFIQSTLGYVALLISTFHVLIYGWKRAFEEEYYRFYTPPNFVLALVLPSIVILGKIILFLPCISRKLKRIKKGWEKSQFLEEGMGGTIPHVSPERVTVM

[2] = target: T1, human STEAP2 (six-transmembrane …); assay: cell-based or functional assay; remark: listed apart in the source
[3] = target: T1, human STEAP2 (six-transmembrane …); assay: cell-based binding (flow cytometry)
[4] = target: T2, murine chimeric STEAP3-2 protein on AD293 cells (murine); assay: flow cytometry on AD293 muSTEAP3-2 cells, anti-human secondary
T2 construct: Used to test cross-reactivity to mouse STEAP2; also called AD293 muSTEAP3-2; AD293 STEAP3-2
Description: (§1) The cell-binding assays were designed to assess the binding affinities for parental 40A3-LO7 and its affinity matured derivatives to both human and murine STEAP2. The binding of the anti-STEAP2 antibodies were detected using a fluorescently labelled anti-human secondary antibody and standard methods of flow cytometry.
(§2) Briefly, a seven point 3-fold serial dilutions of 5× antibodies (mAbs) was prepared in sterile filtered FACS Buffer (5% Heat Inactivated Fetal Bovine Serum in PBS pH 7.4). Ten microliters of the antibody dilutions were added into designated wells in a 96-well U-bottom clear plate. The evaluated cells lines were harvested using cold 0.25% Trypsin-EDTA, resuspended in maintenance media, pelleted, and counted. Cell density was adjusted to 2×10⁶ cells/ml and forty microliters of cells were seeded on top of the antibody dilutions and incubated for 30 minutes. Cells were washed and a solution containing a 1:400 dilution of anti-human secondary antibody and a 1:1000 dilution of DAPI. After another 30 minute incubation, cells were washed, and then transferred to the FACS instrument for analysis.

[5] = target: T1, human STEAP2 (six-transmembrane …); assay: flow cytometry on LNCaP cells (endogenous human STEAP2), anti-human AF647 secondary
Description: as §1, §2

[6] = target: T1, human STEAP2 (six-transmembrane …); assay: flow cytometry on LNCaP cells (endogenous human STEAP2)
[7] = target: T2, murine chimeric STEAP3-2 protein on …; assay: flow cytometry on AD293 muSTEAP3-2 cells, fluorescent anti-human secondary antibody
Description: as §1, §2

B1: LO14 SG3932 DAR8 ADC (antibody, human IgG1, kappa, V domains shown)
VH: QVQLQQSGPGLVKPSQTLSLTCAISGDSVSRNSAVWNWIRQSPSRGLEWLGRTYYRSKWYNDYAPSVKSRITINPDTSKNQFSLQLNSVTPEDTAVYYCARGLRQNQFYYYMDVWGKGTTVTVSS
VL: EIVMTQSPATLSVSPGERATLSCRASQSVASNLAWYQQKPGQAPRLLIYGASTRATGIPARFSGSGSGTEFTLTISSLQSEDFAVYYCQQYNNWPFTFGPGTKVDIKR
modifications: SG3932 on native cysteines (DAR 8 per antibody); SG3932 (TOP1i, cleavable mal-PEG8-val-ala linker) on native cysteines through a thiosuccinimide linkage; DAR 8 per antibody
- IC50 of cell viability, LNCaP cells (CellTiter-Glo) [1]: 0.3 nM
- In Vitro Potency (22Rv1), IC50 of cell viability (CellTiter-Glo) [2]: 4.53 nM
- In Vitro Potency (C4-2), IC50 of cell viability (CellTiter-Glo) [2]: 2.23 nM
- In Vitro Potency (LNCaP), IC50 of cell viability (CellTiter-Glo) [2]: 0.22 nM

B2: LO11 SG3932 DAR8 ADC (antibody, human IgG1, kappa, V domains shown)
VH: QVQLQQSGPGLVKPSQTLSLTCAISGDSVSRNSAVWNWIRQSPSRGLEWLGRTYYRSKWYNDYAPSVKSRITINPDTSKNQFSLQLNSVTPEDTAVYYCARGLLQNQFYYYMDVWGKGTTVTVSS
VL: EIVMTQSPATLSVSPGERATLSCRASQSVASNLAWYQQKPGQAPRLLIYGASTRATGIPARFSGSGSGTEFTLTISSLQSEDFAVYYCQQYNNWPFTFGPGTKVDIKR
modifications: SG3932 on native cysteines (DAR 8 per antibody); SG3932 (TOP1i, cleavable mal-PEG8-val-ala linker) on native cysteines through a thiosuccinimide linkage; DAR 8 per antibody
- IC50 of cell viability, LNCaP cells (CellTiter-Glo) [1]: 2.78 nM
- In Vitro Potency (22Rv1), IC50 of cell viability (CellTiter-Glo) [2]: 32.1 nM
- In Vitro Potency (C4-2), IC50 of cell viability (CellTiter-Glo) [2]: 16.5 nM
- In Vitro Potency (LNCaP), IC50 of cell viability (CellTiter-Glo) [2]: 1.7 nM

B3: 40A3-LO14 (antibody, human IgG1, kappa, V domains shown)
VH: QVQLQQSGPGLVKPSQTLSLTCAISGDSVSRNSAVWNWIRQSPSRGLEWLGRTYYRSKWYNDYAPSVKSRITINPDTSKNQFSLQLNSVTPEDTAVYYCARGLRQNQFYYYMDVWGKGTTVTVSS
VL: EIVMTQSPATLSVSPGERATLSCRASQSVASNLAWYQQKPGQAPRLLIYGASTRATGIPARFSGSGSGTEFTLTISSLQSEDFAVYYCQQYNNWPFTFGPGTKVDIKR
notes: also called 40A3GL-LO14; LO14 mAb
- fold improvement in binding relative to 40A3-LO7 [3]: 26 fold
- EC50 [4]: 0.97 nM
- EC50 [5]: 1.67 nM

B4: 40A3-LO11 (antibody, human IgG1, kappa, V domains shown)
VH: QVQLQQSGPGLVKPSQTLSLTCAISGDSVSRNSAVWNWIRQSPSRGLEWLGRTYYRSKWYNDYAPSVKSRITINPDTSKNQFSLQLNSVTPEDTAVYYCARGLLQNQFYYYMDVWGKGTTVTVSS
VL: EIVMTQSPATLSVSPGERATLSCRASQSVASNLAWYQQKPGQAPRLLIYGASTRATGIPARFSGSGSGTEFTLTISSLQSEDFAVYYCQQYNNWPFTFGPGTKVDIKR
notes: also called 40A3GL-LO11; LO11 mAb
- EC50 [4]: 5.78 nM
- EC50 [5]: 2.38 nM

B5: 40A3-LO7 (antibody, V domains shown)
VH: QVQLQQSGPGLVKPSQTLSLTCAISGDSVSRNSAVWNWIRQSPSRGLEWLGRTYYRSKWYNDYAVSVKSRITINPDTSKNQFSLQLNSVTPEDTAVYYCARGLLQNQFYYYMDVWGKGTTVTVSS
VL: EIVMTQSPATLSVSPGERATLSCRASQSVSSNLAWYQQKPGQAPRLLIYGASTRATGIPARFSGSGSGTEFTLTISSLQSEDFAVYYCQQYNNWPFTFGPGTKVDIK
notes: Germlined, de-risked 40A3; Human IgG1 kappa; also called 40A3GL-LO7; STEAP2-3 VH / STEAP2-3 VL
- EC50 [6]: 43.3 nM
- EC50 (read off the curve) [7]: ~5 µg/mL

B6: 40A3-LO12 (antibody, V domains shown)
VH: QVQLQQSGPGLVKPSQTLSLTCAISGDSVSRNSAVWNWIRQSPSRGLEWLGRTYYRSKWYNDYAVSVKSRITINPDTSKNQFSLQLNSVTPEDTAVYYCARGLRQNQFYYYMDVWGKGTTVTVSS
VL: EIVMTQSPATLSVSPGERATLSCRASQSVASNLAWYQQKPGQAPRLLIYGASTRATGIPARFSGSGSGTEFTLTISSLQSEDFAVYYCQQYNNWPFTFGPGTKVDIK
notes: Human IgG1 kappa
- EC50 [6]: 1.72 nM
